From publication doi:10.1101/844506v1

Substrate: O=[N+]([O-])c1ccc(O[C@@H]2O[C@H](CO)[C@@H](O)[C@H](O)[C@H]2O)cc1
Experiment: purified protein
Conditions: no added glucose

B1: B8CYA8 (β-glucosidase from Halothermothrix orenii) (Halothermothrix orenii H 168) (protein)
chain: MAKIIFPEDFIWGAATSSYQIEGAFNEDGKGESIWDRFSHTPGKIENGDTGDIACDHYHLYREDIELMKEIGIRSYRFSTSWPRILPEGKGRVNQKGLDFYKRLVDNLLKANIRPMITLYHWDLPQALQDKGGWTNRDTAKYFAEYARLMFEEFNGLVDLWVTHNEPWVVAFEGHAFGNHAPGTKDFKTALQVAHHLLLSHGMAVDIFREEDLPGEIGITLNLTPAYPAGDSEKDVKAASLLDDYINAWFLSPVFKGSYPEELHHIYEQNLGAFTTQPGDMDIISRDIDFLGINYYSRMVVRHKPGDNLFNAEVVKMEDRPSTEMGWEIYPQGLYDILVRVNKEYTDKPLYITENGAAFDDKLTEEGKIHDEKRINYLGDHFKQAYKALKDGVPLRGYYVWSLMDNFEWAYGYSKRFGLIYVDYENGNRRFLKDSALWYREVIEKGQVEAN
Protein B1 has a Km of 1800 ± 100 µM and a kcat of 339.0 ± 28.3 s⁻¹.
